Series [1] deals with LEF-4 (Autographa californica nuclear polyhedrosis virus). As to conditions: 5'-triphosphate; RNA 5'-triphosphatase turnover, 0.3 mM MnCl2, 30 C.
For series [2], the target named is baculovirus RNA polymerase complex (LEF-8/LEF-9/LEF-4/p47) (Autographa californica nuclear polyhedrosis virus) (UniProt P41452+P41465+P41477+P34051). The following applies: 5'-triphosphate; RNA 5'-triphosphatase turnover, 0.3 mM MnCl2, 30 C.
For series [3], the system named is LEF-4 E9/11A E9A,E11A (Autographa californica nuclear polyhedrosis virus). As to conditions: 5'-triphosphate; RNA triphosphatase reduced 100-fold.
In series [4] the test system is LEF-4 R51A R51A (Autographa californica nuclear polyhedrosis virus). The following applies: 5'-triphosphate; RNA triphosphatase.
For series [5], the system named is LEF-4 wild type (E. coli) (Autographa californica nuclear polyhedrosis virus). The following applies: 5'-triphosphate; RNA triphosphatase, 1 uM RNA.
In series [6] the test system is LEF-4 L105F L105F (Autographa californica nuclear polyhedrosis virus). As to conditions: 5'-triphosphate; RNA triphosphatase at nonpermissive temperature (33 C); equal to wild type at 25 C.

Sequence of UniProt P41452 (P41452 whole entry, chain 1 of 4): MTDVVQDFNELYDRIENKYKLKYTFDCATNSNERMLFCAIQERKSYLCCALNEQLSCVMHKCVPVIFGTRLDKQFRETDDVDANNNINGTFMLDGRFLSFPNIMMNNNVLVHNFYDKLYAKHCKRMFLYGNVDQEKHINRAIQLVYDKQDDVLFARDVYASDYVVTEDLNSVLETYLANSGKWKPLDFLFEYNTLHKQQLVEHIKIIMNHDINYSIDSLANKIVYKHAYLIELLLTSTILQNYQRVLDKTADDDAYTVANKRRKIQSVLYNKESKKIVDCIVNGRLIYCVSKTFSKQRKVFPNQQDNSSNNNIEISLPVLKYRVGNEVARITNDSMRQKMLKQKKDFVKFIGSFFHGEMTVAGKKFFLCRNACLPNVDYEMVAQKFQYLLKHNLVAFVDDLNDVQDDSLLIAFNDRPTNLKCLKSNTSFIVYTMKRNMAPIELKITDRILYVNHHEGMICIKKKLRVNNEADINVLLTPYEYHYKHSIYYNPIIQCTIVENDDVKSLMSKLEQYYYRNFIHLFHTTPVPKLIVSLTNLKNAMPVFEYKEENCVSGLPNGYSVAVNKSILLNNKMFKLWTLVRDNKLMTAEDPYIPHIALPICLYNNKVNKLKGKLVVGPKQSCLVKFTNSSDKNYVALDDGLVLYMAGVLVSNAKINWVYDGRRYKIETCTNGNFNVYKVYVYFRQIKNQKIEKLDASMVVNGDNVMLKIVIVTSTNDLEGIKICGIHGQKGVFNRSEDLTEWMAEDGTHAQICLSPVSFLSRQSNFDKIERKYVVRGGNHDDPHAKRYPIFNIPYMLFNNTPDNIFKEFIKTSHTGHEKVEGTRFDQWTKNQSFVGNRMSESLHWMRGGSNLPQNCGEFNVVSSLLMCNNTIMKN
Sequence of UniProt P41452 (P41465 whole entry, chain 2 of 4): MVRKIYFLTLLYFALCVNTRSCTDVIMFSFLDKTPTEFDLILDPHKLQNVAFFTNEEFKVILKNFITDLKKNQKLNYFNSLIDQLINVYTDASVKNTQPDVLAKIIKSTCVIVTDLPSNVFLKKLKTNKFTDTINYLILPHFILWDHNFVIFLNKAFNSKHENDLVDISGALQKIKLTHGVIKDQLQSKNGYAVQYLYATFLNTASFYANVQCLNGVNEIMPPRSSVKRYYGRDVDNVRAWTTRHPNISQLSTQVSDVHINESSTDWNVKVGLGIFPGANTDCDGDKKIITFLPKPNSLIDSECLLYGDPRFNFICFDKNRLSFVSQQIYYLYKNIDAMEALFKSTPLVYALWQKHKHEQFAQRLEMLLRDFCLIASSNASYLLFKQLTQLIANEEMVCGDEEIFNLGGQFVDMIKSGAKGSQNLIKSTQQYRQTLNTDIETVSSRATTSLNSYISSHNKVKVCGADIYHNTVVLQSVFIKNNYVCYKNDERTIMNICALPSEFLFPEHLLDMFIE
Sequence of UniProt P41452 (P41477 whole entry, chain 3 of 4): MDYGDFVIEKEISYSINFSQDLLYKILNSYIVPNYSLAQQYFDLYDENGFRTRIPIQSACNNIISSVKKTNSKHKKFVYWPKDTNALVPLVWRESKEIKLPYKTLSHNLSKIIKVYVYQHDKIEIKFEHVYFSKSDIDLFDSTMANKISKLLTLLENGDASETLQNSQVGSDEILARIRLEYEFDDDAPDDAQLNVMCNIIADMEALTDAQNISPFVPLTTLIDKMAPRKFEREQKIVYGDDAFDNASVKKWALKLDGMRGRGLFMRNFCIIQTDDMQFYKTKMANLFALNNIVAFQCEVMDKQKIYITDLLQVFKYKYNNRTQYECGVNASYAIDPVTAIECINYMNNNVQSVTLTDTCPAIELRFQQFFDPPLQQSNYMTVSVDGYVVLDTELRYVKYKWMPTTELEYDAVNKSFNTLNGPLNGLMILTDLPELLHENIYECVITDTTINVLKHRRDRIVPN
Sequence of UniProt P41452 (P34051 whole entry, chain 4 of 4): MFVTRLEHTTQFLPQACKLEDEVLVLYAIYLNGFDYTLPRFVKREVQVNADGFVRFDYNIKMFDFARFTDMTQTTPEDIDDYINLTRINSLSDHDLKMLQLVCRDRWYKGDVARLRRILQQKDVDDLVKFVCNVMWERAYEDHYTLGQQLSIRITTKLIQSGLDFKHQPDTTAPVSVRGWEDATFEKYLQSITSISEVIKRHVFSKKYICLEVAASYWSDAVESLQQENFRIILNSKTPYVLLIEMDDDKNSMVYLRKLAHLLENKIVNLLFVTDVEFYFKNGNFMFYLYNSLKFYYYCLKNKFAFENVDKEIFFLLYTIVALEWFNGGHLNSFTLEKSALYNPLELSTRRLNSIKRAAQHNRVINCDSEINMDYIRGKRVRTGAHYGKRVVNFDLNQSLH

Regarding “gamma-32P 5'-triphosphate 150-nt T3 transcript of pBluescript KS”, the activity in series [1] stood at 0.31 fmol/s/fmol; in series [2] it was 0.16 fmol/s/fmol. Further, the binding signal (fraction of wild type) in series [3] is 0.01. For the same substance, the RNA triphosphatase activity (% of wild type) in series [4] came to 2.5. Further, in series [5], the activity (pmol Pi/pmol per 15 min) stood at 210. Further, the binding signal (% of wild type) in series [6] turned out to be 74.

These data come from patent US6511832.
